Values quoted from earlier work, collected in paper PMC5726790.

How the values were obtained:
[1] = target: CCR7 (Mus musculus) (UniProt P47774)
[2] = target: C5a receptor (Homo sapiens) (UniProt P21730)
UniProt P21730, sequence (P21730 whole entry): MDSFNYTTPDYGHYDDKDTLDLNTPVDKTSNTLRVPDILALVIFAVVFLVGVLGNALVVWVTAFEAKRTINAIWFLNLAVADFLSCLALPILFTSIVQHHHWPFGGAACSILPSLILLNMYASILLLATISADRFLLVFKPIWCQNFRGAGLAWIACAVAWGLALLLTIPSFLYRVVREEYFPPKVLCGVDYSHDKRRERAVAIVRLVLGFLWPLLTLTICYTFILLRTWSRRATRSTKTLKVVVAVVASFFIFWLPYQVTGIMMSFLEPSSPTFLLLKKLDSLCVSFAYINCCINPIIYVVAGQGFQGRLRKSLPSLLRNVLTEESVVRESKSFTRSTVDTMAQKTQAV

UniProt P47774, sequence (P47774 25-378): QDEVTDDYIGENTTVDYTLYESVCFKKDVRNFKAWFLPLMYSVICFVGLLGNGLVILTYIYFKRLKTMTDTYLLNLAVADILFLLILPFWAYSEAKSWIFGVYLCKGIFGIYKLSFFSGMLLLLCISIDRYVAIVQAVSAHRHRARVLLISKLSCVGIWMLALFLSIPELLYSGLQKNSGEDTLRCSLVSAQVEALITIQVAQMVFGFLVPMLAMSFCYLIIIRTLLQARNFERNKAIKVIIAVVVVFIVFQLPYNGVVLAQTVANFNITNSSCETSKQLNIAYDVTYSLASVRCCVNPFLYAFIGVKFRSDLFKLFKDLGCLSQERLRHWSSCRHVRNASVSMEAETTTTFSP

For CCL19 (from UniProt O70460), the Kd [1] is listed as 1.5 nM.
For C5a C5a (from UniProt P01031), the Kd [2] is listed as 1 nM.
